Laboratory results published in US20020103111A1, “Inhibitors of MAdCAM-1-mediated interactions and methods of use therefor” (Millennium Pharmaceuticals, Inc., priority 1996, published 2002).
pIC50: −log10 of the molar value. Square brackets hold non-standard residues; d marks the D form. Ends that are not written are not given here. NMeL = CN[C@@H](CC(C)C)C(=O)O

target: human α4β7 integrin (human) (UniProt P13612); assay: RPMI 8866 adhesion to chimera on Protein A; neat; after control MAb 2G7

bound cells (raw fluorescence)	Substance
196000	human MAdCAM-1-IgG chimera (huMAdCAM-1-Ig, construct HuMAdIg21) (from UniProt P01857 1-330) (Fc fusion)

target: human α4β7 integrin (human) (UniProt P13612); assay: inhibition of HUT 78 cell adhesion to murine MAdCAM-1/mCk at 500 µM

Substance	% Adhesion Inhibition
Ac-HWRGLDTSLGSV	71%
Ac-Lle-Asp-Thr-Ser-Leu (peptide)	17%
Ac-RVHWRGLDTSLGSVQ	88%
Ac-WRGLDTSLGS	71%
Ac-[NMeL]LDTSL	28%
[NMeL]LDTSL	54%

The remaining lines, values ahead:

% Adhesion Inhibition	Substance
75%	Ac-RGLDTSLG
80%	H-HWRGLDTSLGSV
90%	H-RVHWRGLDTSLGSVQ
76%	H-WRGLDTSLGS
22%	NH2-Leu-Asp-Thr-Ser-Leu (peptide)

target: human α4β7 integrin (human) (UniProt P13612); assay: inhibition of HUT 78 cell adhesion to murine MAdCAM-1/mCk

pIC50	Substance
2.88	Ac-[NMeL]LDTSL
5.05	Cpc-Asp-Thr-Ser-Leu (peptide)
4.87	Pba-Asp-Thr (peptide)
4.88	Pba-Asp-Thr-Ser-Leu (peptide)
4.96	Pca-Asp-Thr (peptide)
3.59	[NMeL]LDTSL

Substance	pIC50
2-Anc-Leu-Asp-Thr-Ser-Leu (peptide)	5.27
Ac-MeLeu-Asp-Thr-Ser-Leu (peptide)	3.82
Dphb-Leu-Asp-Thr-Ser-Leu (peptide)	4.82
Pba-Leu-Asp-Thr-Ser-Leu (00789-1A) (peptide)	5.40
Pca-Leu-Asp-Thr-Ser-Leu (peptide)	5.68

target: human α4β7 integrin (human) (UniProt P13612); assay: inhibition of HUT 78 cell adhesion to murine MAdCAM-1/mCk at 100 µM

% Adhesion Inhibition	Substance
100%	Pba-Asp-Thr (peptide)
100%	Pba-Asp-Thr-Ser-Leu (peptide)
